US20220127355A1 (INTEGRAL MOLECULAR, published 2022)

T1: A153S
T1 construct: Shotgun Mutagenesis mutant; also called Claudin 6 A153S
T1 chain: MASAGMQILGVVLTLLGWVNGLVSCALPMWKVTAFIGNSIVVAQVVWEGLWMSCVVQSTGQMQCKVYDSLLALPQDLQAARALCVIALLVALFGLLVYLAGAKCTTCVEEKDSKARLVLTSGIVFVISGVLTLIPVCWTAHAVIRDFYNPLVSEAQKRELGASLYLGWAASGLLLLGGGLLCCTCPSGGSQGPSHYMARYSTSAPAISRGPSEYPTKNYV

T2: D68A
T2 construct: Shotgun Mutagenesis mutant; also called Claudin 6 D68A
T2 chain: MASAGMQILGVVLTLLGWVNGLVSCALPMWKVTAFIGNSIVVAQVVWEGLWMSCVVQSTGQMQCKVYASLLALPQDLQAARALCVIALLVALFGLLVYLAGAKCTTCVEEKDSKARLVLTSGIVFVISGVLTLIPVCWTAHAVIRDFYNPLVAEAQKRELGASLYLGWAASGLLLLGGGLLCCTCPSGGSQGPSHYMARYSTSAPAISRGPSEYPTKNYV

T3: Y67A
T3 construct: Shotgun Mutagenesis mutant; also called Claudin 6 Y67A
T3 chain: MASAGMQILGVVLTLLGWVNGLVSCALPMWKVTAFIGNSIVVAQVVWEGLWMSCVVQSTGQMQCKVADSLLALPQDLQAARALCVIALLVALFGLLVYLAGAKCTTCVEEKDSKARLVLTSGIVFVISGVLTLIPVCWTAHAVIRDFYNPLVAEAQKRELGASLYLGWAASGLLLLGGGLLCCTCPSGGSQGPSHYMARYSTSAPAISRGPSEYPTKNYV

T4: Q78A
T4 construct: Shotgun Mutagenesis mutant; also called Claudin 6 Q78A
T4 chain: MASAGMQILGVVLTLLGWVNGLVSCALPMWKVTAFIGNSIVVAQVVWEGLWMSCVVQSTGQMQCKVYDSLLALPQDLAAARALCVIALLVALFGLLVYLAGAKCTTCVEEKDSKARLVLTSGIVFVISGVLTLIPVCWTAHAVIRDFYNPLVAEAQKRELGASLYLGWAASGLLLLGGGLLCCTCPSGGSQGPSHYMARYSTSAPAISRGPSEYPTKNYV

T5: D146A
T5 construct: Shotgun Mutagenesis mutant; also called Claudin 6 D146A
T5 chain: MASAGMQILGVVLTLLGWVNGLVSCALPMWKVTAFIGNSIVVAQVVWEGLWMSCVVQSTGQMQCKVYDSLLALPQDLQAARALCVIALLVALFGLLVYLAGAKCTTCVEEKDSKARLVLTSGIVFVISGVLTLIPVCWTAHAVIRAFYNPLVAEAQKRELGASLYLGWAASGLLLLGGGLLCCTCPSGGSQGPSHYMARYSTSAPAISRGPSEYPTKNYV

T6: T33A
T6 construct: Shotgun Mutagenesis mutant; also called Claudin 6 T33A
T6 chain: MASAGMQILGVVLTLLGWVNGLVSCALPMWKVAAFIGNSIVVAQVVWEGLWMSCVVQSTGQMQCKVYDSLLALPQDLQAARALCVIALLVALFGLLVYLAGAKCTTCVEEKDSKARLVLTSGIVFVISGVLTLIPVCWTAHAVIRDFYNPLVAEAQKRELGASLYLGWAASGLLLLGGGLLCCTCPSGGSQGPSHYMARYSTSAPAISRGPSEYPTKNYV

T7: N38A
T7 construct: Shotgun Mutagenesis mutant; also called Claudin 6 N38A
T7 chain: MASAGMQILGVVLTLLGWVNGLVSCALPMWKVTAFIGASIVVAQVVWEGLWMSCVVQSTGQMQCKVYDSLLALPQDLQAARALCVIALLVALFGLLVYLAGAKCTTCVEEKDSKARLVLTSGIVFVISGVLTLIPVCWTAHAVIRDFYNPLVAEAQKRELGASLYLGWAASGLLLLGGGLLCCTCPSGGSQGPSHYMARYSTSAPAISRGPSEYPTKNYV

T8: Q156A
T8 construct: Shotgun Mutagenesis mutant; also called Claudin 6 Q156A
T8 chain: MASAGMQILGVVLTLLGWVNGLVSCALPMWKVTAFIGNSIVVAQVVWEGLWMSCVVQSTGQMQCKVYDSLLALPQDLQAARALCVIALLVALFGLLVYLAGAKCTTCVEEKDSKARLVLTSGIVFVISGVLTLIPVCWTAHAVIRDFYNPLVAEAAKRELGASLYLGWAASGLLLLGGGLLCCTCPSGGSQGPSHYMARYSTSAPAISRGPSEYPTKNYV

T9: V152A
T9 construct: Shotgun Mutagenesis mutant; also called Claudin 6 V152A
T9 chain: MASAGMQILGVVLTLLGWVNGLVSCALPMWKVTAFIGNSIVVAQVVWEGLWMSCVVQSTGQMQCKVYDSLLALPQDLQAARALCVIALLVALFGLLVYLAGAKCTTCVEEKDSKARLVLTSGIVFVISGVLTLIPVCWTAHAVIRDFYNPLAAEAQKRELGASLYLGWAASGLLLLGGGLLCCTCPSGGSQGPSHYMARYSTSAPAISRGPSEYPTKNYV

T10: E48A
T10 construct: Shotgun Mutagenesis mutant; also called Claudin 6 E48A
T10 chain: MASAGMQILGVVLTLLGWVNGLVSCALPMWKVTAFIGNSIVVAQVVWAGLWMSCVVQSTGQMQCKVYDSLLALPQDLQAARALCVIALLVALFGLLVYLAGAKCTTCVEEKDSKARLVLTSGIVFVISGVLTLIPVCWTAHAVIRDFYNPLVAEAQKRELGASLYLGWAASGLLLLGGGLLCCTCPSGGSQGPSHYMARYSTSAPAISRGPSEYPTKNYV


Tests used:
Test in all cases: Shotgun Mutagenesis epitope mapping; mean (range), % of wild-type Claudin 6
A153S = molecular target: T1, A153S
D68A = molecular target: T2, D68A
Y67A = molecular target: T3, Y67A
Q78A = molecular target: T4, Q78A
D146A = molecular target: T5, D146A
T33A = molecular target: T6, T33A
N38A = molecular target: T7, N38A
Q156A = molecular target: T8, Q156A
V152A = molecular target: T9, V152A
E48A = molecular target: T10, E48A

Binder | Binding Reactivity (% WT) (A153S) | Binding Reactivity (% WT) (D68A) | Binding Reactivity (% WT) (Y67A) | Binding Reactivity (% WT) (Q78A) | Binding Reactivity (% WT) (D146A) | Binding Reactivity (% WT) (T33A) | Binding Reactivity (% WT) (N38A) | Binding Reactivity (% WT) (Q156A) | Binding Reactivity (% WT) (V152A) | Binding Reactivity (% WT) (E48A)
IM171 (antibody, V domains shown, Detected with anti-human IgG Fc secondary; also called LM171) VH: AVTLDESGGGLQTPGGALSLVCKASGFDFSSYAMNWVRQAPGKGLEWVAGIGSTGSSTGYGPAVKGRATISRDNGQSTLRLQLNNLRAEDTAIYYCAKSVGNGNSWSGYIATSIDAWGHGTEVIVSS VL: ALTQPSSVSANLGGTVKLTCSGGSSGYGWYQQKSPGSAPVTVIYSNDKRPSDIPSRFSGSLSGSTGTLTITGVQADDEAVYFCGSTDNSYVGIFGAGTTLTVL | 24 | 93.7 | 97.2 | 151 | 57.6 | 22.8 | 22.4 | 102 | 129 | 0.9
IM173 (antibody, V domains shown, Detected with anti-human IgG Fc secondary) VH: AVTLDESGGGLQTPGGALSLVCKASGFTFSSYSMFWVRRAPGKGLEWVAGIDSGSTTFYGSAVKGRATISRDNGQSTVRLQLNNLRAEDTATYYCAKDAYGYCGWSGCSADSIDAWGHGTEVIVSS VL: ALTQPSSVSANPGGTVEITCSGGNNYYGWYQQKSPGSAPVTVIYYNDKRPSDIPSRFSGSKSGSTGTLTITGVQADDEAVYFCGGWDSSGGIFGAGTTLTVL | 113 | 89.6 | 28.8 | 144 | 119 | 116 | 86 | 0.9 | 58.2 | -0.5
